Measured values from patent US20040156824A1.
Ends that are not written are not given here.

Experiments:
[1] = target: nucleohistones expressed in the nucleus of mammalian cells; assay: radioimmunoassay on paraformaldehyde-acetone-treated cells
[2] = target: variant of the HLA-Dr antigen expressed on the cell surface of human B-lymphocytes and malignant lymphomas (human); assay: indirect cell binding assay
[3] = target: variant of the HLA-Dr antigen expressed on the cell surface of human B-lymphocytes and malignant lymphomas (human); assay: live cell binding assay
[4] = target: nucleohistones expressed in the nucleus of mammalian cells; assay: cell binding assay (printed as live cell binding assay)
[5] = target: variant of the HLA-Dr antigen expressed on the cell surface of human B-lymphocytes and malignant lymphomas (human); assay: live cell radioimmunoassay on Raji cells

Molecule | percent of the antibody binding reactivity retained against unconjugated antibody [2] [%] | further results
125I-labeled TNT-1 F(ab')2 fragment (antibody) | – | immunoreactivity [1]: > 80%
Lym-1/3B immunoconjugate (from UniProt P60568 53-78) | > 75 | –
Lym-1/4A immunoconjugate (from UniProt P60568 125-153) | > 75 | –
Lym-1/4B immunoconjugate (from UniProt P60568 107-153) | > 75 | –
Lym-1/A3 immunoconjugate (from UniProt P60568 57-92) | > 75 | –
Lym-1/IL-2 immunoconjugate (from UniProt P60568 21-153) | – | percent of the antibody binding reactivity retained against unconjugated antibody [3]: > 75%
TNT-1/IL-2 immunoconjugate (from UniProt P60568 21-153) | – | percent of the antibody binding reactivity retained against unconjugated antibody [4]: > 75%
QMILNGINNYKNPKLTR (peptide, UniProt P60568 42-58, looked up, part only, also: conjugated to murine antibody Lym-1) [Lym-1/E6 immunoconjugate] | > 75 | –
TRMLTFKFYMPKKATELKHLQC (peptide, UniProt P60568 57-78, looked up, part only, also: conjugated to murine antibody Lym-1) [Lym-1/B1 immunoconjugate] | > 75 | –
125I-labeled Lym-1 F(ab')2 fragment (antibody, from another filing, mouse IgG2a, V domains shown) VH: QLKESGPGLVAPSQSLSITCTISGFSLTSYGVHWVRQPPGKGLEWLVVIWSDGSTTYNSALKSRLSISKDNSKSQVFLKMNSLQTDDTAIYYCASHYGSTLAFASWGHGTLVTVSA VL: DIQMTQSPASLSASVGETVTIICRASVNIYSYLAWYQQKQGKSPQLLVYNAKILAEGVPSRFSGSGSGTQFSLKINSLQPEDFGSYYCQHHYGTFTFGSGTKLEIK | – | percent of radiolabeled preparation bound to cells (immunoreactivity) [5]: 80%
FYMPKKATELKHLQC (peptide, UniProt P60568 64-78, looked up, part only, also: conjugated to murine antibody Lym-1) [Lym-1/3A immunoconjugate] | > 75 | –
